# Experimental data: the supplement of paper PMC9112550, “Optimization of the antimicrobial peptide Bac7 by deep mutational scanning” (BMC Biology, 2022)
# Test system: Escherichia coli TOP10
# Experiment: shrunken log2 fold change of peptide-encoding DNA abundance (4.5 h post-induction vs induction); higher = less antimicrobial activity (less host growth inhibition)
# Conditions: time post-induction: 4.5 h; library: site-saturation at positions 5, 18, 19, 20
# 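Further: peptides expressed intracellularly from a pBAD plasmid library in pooled LB shake-flask culture, induced with 0.3% L-arabinose, DNA abundance read by NGS, three biological replicates, DESeq2 with apeglm shrinkage.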
row,Sequence,shrunken log2 fold change
1,RRIRYRPPRLPRPRPRPPSLPRP,0.289
2,RRIRQRPPRLPRPRPRPQQRPRP,0.0983
3,RRIRFRPPRLPRPRPRPRHSPRP,0.0584
4,RRIRYRPPRLPRPRPRPGTAPRP,-0.39
5,RRIRCRPPRLPRPRPRPIHQPRP,-0.304
6,RRIRWRPPRLPRPRPRPDQAPRP,0.11
7,RRIRMRPPRLPRPRPRPYTDPRP,-0.161
8,RRIRTRPPRLPRPRPRPLHEPRP,-0.191
9,RRIRRRPPRLPRPRPRPPLGPRP,0.998
10,RRIRLRPPRLPRPRPRPQSMPRP,-0.197
11,RRIRQRPPRLPRPRPRPLISPRP,-0.173
12,RRIRKRPPRLPRPRPRPLMSPRP,0.0201
13,RRIRLRPPRLPRPRPRPMVGPRP,-0.135
14,RRIRGRPPRLPRPRPRPMHTPRP,1.25
15,RRIRTRPPRLPRPRPRPKRTPRP,-0.132
16,RRIRMRPPRLPRPRPRPTLFPRP,0.428
17,RRIRNRPPRLPRPRPRPRHKPRP,-0.369
18,RRIRTRPPRLPRPRPRPIIKPRP,-0.67
19,RRIRDRPPRLPRPRPRPDAPPRP,0.788
20,RRIRKRPPRLPRPRPRPQKEPRP,-0.00503
21,RRIRSRPPRLPRPRPRPAQCPRP,0.0899
22,RRIRLRPPRLPRPRPRPNSMPRP,-0.0473
23,RRIRTRPPRLPRPRPRPGKVPRP,0.145
24,RRIRPRPPRLPRPRPRPCFMPRP,-0.269
25,RRIRERPPRLPRPRPRPMNQPRP,-0.67

row,Sequence,shrunken log2 fold change
1,RRIRFRPPRLPRPRPRPRDGPRP,1.36
2,RRIRARPPRLPRPRPRPFFAPRP,0.67
3,RRIRNRPPRLPRPRPRPEMPPRP,-0.0738
4,RRIRIRPPRLPRPRPRPWEQPRP,0.107
5,RRIRWRPPRLPRPRPRPSFAPRP,0.28
6,RRIRSRPPRLPRPRPRPILIPRP,-0.384
7,RRIRERPPRLPRPRPRPGDWPRP,0.212
8,RRIRSRPPRLPRPRPRPLRLPRP,0.54
9,RRIRPRPPRLPRPRPRPWIGPRP,-0.0305
10,RRIRWRPPRLPRPRPRPYLVPRP,-0.195
11,RRIRTRPPRLPRPRPRPGSYPRP,-0.0475
12,RRIRVRPPRLPRPRPRPGAIPRP,0.0707
13,RRIRQRPPRLPRPRPRPHCAPRP,0.0396
14,RRIRERPPRLPRPRPRPKHEPRP,-0.205
15,RRIRSRPPRLPRPRPRPFNRPRP,-0.363
16,RRIRKRPPRLPRPRPRPKLEPRP,-0.0306
17,RRIRTRPPRLPRPRPRPRCCPRP,0.0734
18,RRIRYRPPRLPRPRPRPWHEPRP,-0.01
19,RRIRNRPPRLPRPRPRPSNEPRP,-0.717
20,RRIRGRPPRLPRPRPRPPAKPRP,1.48
21,RRIRERPPRLPRPRPRPRVAPRP,0.343
22,RRIRERPPRLPRPRPRPARLPRP,0.361
23,RRIRNRPPRLPRPRPRPMLNPRP,-0.21
24,RRIRDRPPRLPRPRPRPPEVPRP,0.705
25,RRIRNRPPRLPRPRPRPNDYPRP,-0.365

row,Sequence,shrunken log2 fold change
1,RRIRWRPPRLPRPRPRPFRNPRP,-0.209
2,RRIRDRPPRLPRPRPRPLMMPRP,0.0576
3,RRIRIRPPRLPRPRPRPCPVPRP,-0.523
4,RRIRSRPPRLPRPRPRPPIWPRP,0.0326
5,RRIRNRPPRLPRPRPRPYCDPRP,-0.0156
6,RRIRYRPPRLPRPRPRPPWIPRP,-0.447
7,RRIRLRPPRLPRPRPRPPYYPRP,-0.292
8,RRIRNRPPRLPRPRPRPIPRPRP,0.0496
9,RRIRTRPPRLPRPRPRPKVMPRP,-0.243
10,RRIRWRPPRLPRPRPRPDWPPRP,0.332
11,RRIRVRPPRLPRPRPRPQYAPRP,-0.193
12,RRIRQRPPRLPRPRPRPWWYPRP,-0.0791
13,RRIRNRPPRLPRPRPRPDHRPRP,-0.0124
14,RRIRFRPPRLPRPRPRPENKPRP,-0.422
15,RRIRIRPPRLPRPRPRPFCCPRP,-0.205
16,RRIRDRPPRLPRPRPRPFIHPRP,-0.572
17,RRIRFRPPRLPRPRPRPPIHPRP,-0.255
18,RRIRRRPPRLPRPRPRPCVAPRP,0.261
19,RRIRVRPPRLPRPRPRPTPPPRP,0.406
20,RRIRGRPPRLPRPRPRPERWPRP,1.19
21,RRIRIRPPRLPRPRPRPADEPRP,-0.08
22,RRIRVRPPRLPRPRPRPRIGPRP,0.131
23,RRIRMRPPRLPRPRPRPTAHPRP,0.767
24,RRIRPRPPRLPRPRPRPKSEPRP,0.197
25,RRIRNRPPRLPRPRPRPPNQPRP,-0.0523

row,Sequence,shrunken log2 fold change
1,RRIRHRPPRLPRPRPRPAWFPRP,0.211
2,RRIRWRPPRLPRPRPRPNPSPRP,0.219
3,RRIRSRPPRLPRPRPRPCPPPRP,-0.244
4,RRIRNRPPRLPRPRPRPWSEPRP,0.0632
5,RRIRQRPPRLPRPRPRPDPTPRP,0.119
6,RRIRLRPPRLPRPRPRPECEPRP,0.147
7,RRIRQRPPRLPRPRPRPFKTPRP,-0.0381
8,RRIRLRPPRLPRPRPRPVDRPRP,0.584
9,RRIRSRPPRLPRPRPRPKFNPRP,-0.573
10,RRIRVRPPRLPRPRPRPIRHPRP,-0.112
11,RRIRVRPPRLPRPRPRPWIFPRP,-0.389
12,RRIRERPPRLPRPRPRPIFDPRP,-0.349
13,RRIRNRPPRLPRPRPRPEHEPRP,0.127
14,RRIRQRPPRLPRPRPRPYRLPRP,-0.19
15,RRIRARPPRLPRPRPRPERCPRP,1.09
16,RRIRDRPPRLPRPRPRPMWYPRP,-0.0225
17,RRIRYRPPRLPRPRPRPPRFPRP,0.0549
18,RRIRYRPPRLPRPRPRPRESPRP,0.0662
19,RRIRDRPPRLPRPRPRPQDAPRP,-0.103
20,RRIRGRPPRLPRPRPRPNIDPRP,0.644
21,RRIRERPPRLPRPRPRPLFMPRP,-0.222
22,RRIRTRPPRLPRPRPRPFGMPRP,0.00903
23,RRIRTRPPRLPRPRPRPRLGPRP,0.169
24,RRIRPRPPRLPRPRPRPPATPRP,0.939
25,RRIRARPPRLPRPRPRPHEDPRP,0.627

row,Sequence,shrunken log2 fold change
1,RRIRYRPPRLPRPRPRPVNSPRP,-0.0185
2,RRIRDRPPRLPRPRPRPICSPRP,0.0206
3,RRIRYRPPRLPRPRPRPPKLPRP,-0.172
4,RRIRNRPPRLPRPRPRPKTIPRP,-0.14
5,RRIRLRPPRLPRPRPRPTIPPRP,0.0895
6,RRIRDRPPRLPRPRPRPPVYPRP,-0.175
7,RRIRLRPPRLPRPRPRPYQRPRP,-0.393
8,RRIRWRPPRLPRPRPRPVFPPRP,0.268
9,RRIRYRPPRLPRPRPRPTWPPRP,0.183
10,RRIRYRPPRLPRPRPRPNSEPRP,-0.589
11,RRIRSRPPRLPRPRPRPVSSPRP,0.0316
12,RRIRHRPPRLPRPRPRPLASPRP,-0.0121
13,RRIRLRPPRLPRPRPRPMHPPRP,-0.0318
14,RRIRFRPPRLPRPRPRPEQQPRP,0.171
15,RRIRSRPPRLPRPRPRPYFIPRP,-1.06
16,RRIRQRPPRLPRPRPRPCVFPRP,-0.049
17,RRIRGRPPRLPRPRPRPDWAPRP,1.22
18,RRIRFRPPRLPRPRPRPQVHPRP,-0.262
19,RRIRGRPPRLPRPRPRPAMRPRP,1.17
20,RRIRVRPPRLPRPRPRPILYPRP,0.0692
21,RRIRTRPPRLPRPRPRPGIDPRP,-0.0352
22,RRIRERPPRLPRPRPRPLMLPRP,-0.813
23,RRIRCRPPRLPRPRPRPLNQPRP,-0.317
24,RRIRCRPPRLPRPRPRPWLRPRP,-0.0383
25,RRIRERPPRLPRPRPRPLRYPRP,-0.0652

row,Sequence,shrunken log2 fold change
1,RRIRARPPRLPRPRPRPSPKPRP,0.303
2,RRIRSRPPRLPRPRPRPSWMPRP,-0.0505
3,RRIRGRPPRLPRPRPRPIAEPRP,3.26
4,RRIRNRPPRLPRPRPRPYWAPRP,-0.0304
5,RRIRKRPPRLPRPRPRPEWNPRP,0.599
6,RRIRMRPPRLPRPRPRPQCNPRP,0.041
7,RRIRWRPPRLPRPRPRPCGRPRP,0.376
8,RRIRTRPPRLPRPRPRPTPGPRP,0.296
9,RRIRNRPPRLPRPRPRPTVTPRP,0.354
10,RRIRKRPPRLPRPRPRPKPWPRP,0.526
11,RRIRNRPPRLPRPRPRPFYFPRP,-0.718
12,RRIRGRPPRLPRPRPRPAARPRP,1.16
13,RRIRPRPPRLPRPRPRPHIMPRP,-0.663
14,RRIRFRPPRLPRPRPRPHFIPRP,-0.473
15,RRIRFRPPRLPRPRPRPVLGPRP,-0.127
16,RRIRIRPPRLPRPRPRPKAWPRP,0.0719
17,RRIRFRPPRLPRPRPRPFTTPRP,-0.445
18,RRIRHRPPRLPRPRPRPCGWPRP,0.353
19,RRIRLRPPRLPRPRPRPCCWPRP,0.41
20,RRIRIRPPRLPRPRPRPEYEPRP,-0.0111
21,RRIRLRPPRLPRPRPRPPIGPRP,0.142
22,RRIRRRPPRLPRPRPRPVYRPRP,-0.235
23,RRIRSRPPRLPRPRPRPPEVPRP,0.287
24,RRIRCRPPRLPRPRPRPNLRPRP,-0.315
25,RRIRSRPPRLPRPRPRPMCSPRP,-0.0814
